Reference: US20240287489A1, “CHITINOLYTIC ENZYME-BASED PLANT PROTECTION AGENTS” (GLOBACHEM NV, priority 2021, published 2024)

B1: Chitinase 3: chitinolytic enzyme from P. orarium, SEQ ID NO: 3, recombinant with PelB signal peptide and 6×His tag (protein, listed as Photobacterium orarium)
chain: MALAAPGTPQLAWMETDYAIVEVDQAATAYKDLVTVKNAADVPVAWQRYSGETADHWKVKLNGNVAFEESINPASSGAGSTTLSITQGGQYALTVELCSGSGAEEACSSSPATNIVVADTDGSHLDPLPMNVDPNNGTYSTPADTVVGAYFVEWGVFGRKFTVDKIPAQNLTHILYGFIPVCGPNESLGEIESGNSLAALNRACAGTPDFEVAIHDPWAAVQMPQPQSGHTYSTPYKGNYGQLMALKQRYPDLKVIPSIGGWTLSDPFFSFTDKSKRDVFVASVKKFLQTWKFFDGVDIDWEFPGGKGANTTLGDPVNDGPAYVALMRELRTMLDGLEAETGRQFELTSAIGVGYDKIDVVNYAEASQYMDYIFNMSYDFYGGWSNVTGHQTALNCGSHLTADQCNGTGVDENGEPRQGPAYTTAHGVERLLAQGVPANKLVVGAAMYGRGWTGVTQASMTDPSNPMTGVGNGAVAGSWEAGVIDYKDVVTRYENKAGVVLGYDEQAEAPWAYDPSNGDLVTYDSPRSIMAKGQYVRDLGLAGLFAWEIDADNGDILNAMQESLAGAPAGNRAPVARAGSDQQVNTAATVTLNGSSSTDSDGQIAGYQWVQTSGPALTLNGANTASATISVPDVTVDTQYVFTLTVTDNEGATATDSITVTAKAPGAQNTAPVASLTGPGTANADDVITLDASQSTDADGDTLTYDWTVPAGVNAVINGSSLSFTADSYTTDTALSFSVSVSDGTASDAASLTVTIAKDESGTGGEGDFPAYVEGTAYQAGDQVSNGGVNFECKPYPYSGWCSGAAWAYEPGVGVYWQDAWTQLIE
modifications: PelB signal peptide; 6xHis tag; Chitinase 3
B2: Chitinase 5: chitinolytic enzyme from P. orarium, SEQ ID NO: 5, recombinant with PelB signal peptide and 6×His tag (protein, listed as Photobacterium orarium)
chain: MAMGWSQININGVQKWEEAYSLNVDAANEIITIGAADTAGALYASQSLLQLVDGNKVPEVQITDAPRFAYRGFSVDAVRNFRTKDAIIQLLDQMAAFKLNKLHLRLADDEGWRIEIAGLPELTDVGATRCHDPEEKACILPFLGAGPDGSPESNGYYTATDYQDILSHAAALNIEVVPEIDIPGHAHAAIKAMEARYDHYAAQGNMAEANKYLLTDFNDTTQYLSVQMFTDNAINVCMESSYNFVDAVVSGLVSLHQGVQPLKTFHFGGDEIAGAWINSPACQDFIANNTDGVHSVSDLSRYFVERISVITANYGLDMAGWEDGLMHDGQVYPRSQMANNQLWGNAWQNIWEWGVADRAYNLANNDYKVVYNHATHLYFDHPYEPDPNERGYYWAPRFTDTRKTFGFMPDDVFANADFTRAGAPITKAEVVASAGVKKLLKPENVLGLQGSLWAEAVRTEDQFEGMIFPRVLGLAERAWHTATWEANDNAGIALDETGRNADYNHFANLLGQKVLPKLEQAGIAFNLPVPGGVIENGVLQANSTFPGLTIEYSTDQGTSWQSYDHLNPPAVAAGVQLRTVSGQRTSRVTTVNIE
modifications: PelB signal peptide; 6xHis tag; Chitinase 5
B3: Chitinase 2: chitinolytic enzyme from P. orarium, SEQ ID NO: 2, recombinant with PelB signal peptide and 6×His tag (protein, listed as Photobacterium orarium)
chain: MATANYNPDGVYSAGEQVIYQGATYQALRSTENEAPDTYLGDAWQQVNAQNVTSSTTPTYPAYQSSAVYVGGDHVSYNSQIYKAKWWTQGEAPDATPGTGVWEWVSADNNPDPGPGPDPDPTPEPTPANGIIGQNPDGSYIMSKTYLDAREAELTSSPEFAAVLASISTRDNAVVEAVVPGLSTNPDNVKRVEALISEQKWDALFPERNVVYTYSNFLKAVAKFKGFCATYTDERAAQSDAICAKSLAVMFAHFTQETGAHNPHSPYEEWRQGLFFVREAGCSEEASSCGYNSECAASNWQTEQWPCGTNPDGSYVKYFGRGAKQLSYHYNYGPFSDFIFNDVNVLLQDPDRVADSWLNLASAVFFFVYPQPPKPSMLHVIDGTWQPTAADIAEKRVPGFGVTTMIINGGIECTLDTEKPQSVNRIKYYRGHAAALGVAIPADEQLGCAGMKAFKKTGDSTFGLYWENDWSYYPDNPGGSSFACRIESGYQTAHTTLKKGDYAKCIQKYYGVTIE
modifications: PelB signal peptide; 6xHis tag; Chitinase 2
B4: Chitinase 4: chitinolytic enzyme from P. orarium, SEQ ID NO: 4, recombinant with PelB signal peptide and 6×His tag (protein, listed as Photobacterium orarium)
chain: MAQAAANCRPDGLYQTPGVTVPYCTVYDQDGREKMGVDHPRRVIGYFTSWRSGNDPQSSYLVNDIPWDSLTHINYAFVSIGSDGKVNIGNVNNPDNPAVGKEWPGVEIDPALGFKGHFGALATAKAQHGVKTLISIGGWAETGGHFDDNGNRVADGGFYTMTTNADGSINHQGIQTFADSAVAMMRQYKFDGLDIDYEYPTSMQGAGNPDDFAYSDAMRPHLMKSYHELMKVLREKLDQASAQDGHHYMLTIAAPSSGYLLRGMETMSVTKYLDYVNIMSYDLHGAWNDYVGHNASLFDSGLDAELEAGNVYGTAQYKKTGYLNTDWAYHYFRGSMPAGRINIGVPYYTRGWQGVTGGTNGLWGKAALPNQSDCPTGTGAGTSNCGYGAIGIDNMWHDKDANGNEMGAGSNPMWHAMNLANGVYGSYTAAYGLDPVNDPQDALTGTYTRHYDSVSVAPWLWNADKKVFLSTEDKESINTKADYVIEQGIGGIMFWELAGDYSCYNLDANGNRTTVDPTENACKTGNGEYHMGDTMTKAIHNKFATATPYGNTLAEGAIPTEAVNIDVSVTGFKVGDQNYPLNPTMTLTNKTGQTLPGGTEFQFDIPTSTPDNMSDQSGANLQVISSGHTRGDNIGGLDGNFHRVAFTLPSWKQLGNNESFELTLNYFLPISGPANYSVRVNNADYALAFEQPDLPIADLSNGGGDNGGGDGNNGDCVTTGVNTYPNWPQTDWAGNPSHAGTGDKIIYNGAVYQAKWWTNSVPGSDGSWDTVCTVQIE
modifications: PelB signal peptide; 6xHis tag; Chitinase 4

Columns and labels:
[1] = Enzyme kinetics on chitin powder (Michaelis-Menten non-linear fit); type: biochemical; settings: 2 μM enzyme, 0-150 mg/ml chitin powder
Protocol: Enzyme kinetics were determined using chitin powder as a substrate and the optimum enzyme to substrate ratio could be determined as well as Vmax and Km values. The concentrations of chitin powder varied
from 0 mg/ml up to 150 mg/ml while amount of enzyme was kept constant (2 μM). The initial velocities (V0) versus substrate concentration ([S]) were plotted as Lineweaver-Burk and Michaelis-Menten curves using GraphPad software (FIG. 7).
Maximum reaction velocities (Vmax) and Michaelis-Menten constants (Km) were determined using a non-linear fit Michaelis-Menten model (Table 4.6). Thereby, optimum enzyme-substrate ratios were determined that would allow a maximization of substrate conversion rates. Furthermore, the Km indicated the reciprocal enzyme-substrate affinity for C1-C5. Higher Km values reflect an overall lower affinity and thus reduced conversion efficiencies. […] In comparison, higher Km values for C2 and C5 reflected an overall lower affinity to insoluble chitin.
(§1) Enzyme samples were incubated at different temperature (10-60° C., 10° C. increment) and pH (4-11, increment 1) using different buffer systems (Acetate, Tris-HCl, MES, total molar concentration 100 mM), as well as NaCl content (0, 1. 2.5, 5, 10 and 20% w/v) to determine optimum reaction conditions. All experiments were carried out at 1.0 ml scale using 2 μM of the respective enzymes and a 5% (wv) suspension of chitin powder extracted from shrimp shells (˜400.000 g/mol; Carl, Roth) in 100 mM MAT buffer. For the determination of the substrate specificity, chitin powder (5% w/v), glycol chitin (10% v/v), colloidal chitin (5% w/v), chitosan [DA 15-25%, medium molecular weight, Sigma-Aldrich] (5% w/v) and microcrystalline cellulose powder (Sigma Aldrich) (5% w/v) were investigated, respectively. The effect of several potential co-factors on activity was elucidated at a concentration of 1 mM. Additionally, the effect of detergents [SDS 0.5% (w/v), Tween-20 and Triton X-100 both at 0.5% (v/v)] and chemicals (Imidazole 100 mM, EDTA 1 mM) on enzymatic activity was assessed. Samples were incubated in a thermomixer for 16 h at 900 rpm. After incubation, samples were analyzed using the enzyme assay. Thermostability was assessed after incubation of recombinant chitinases at 60° C. for different durations followed by the quantification of residual enzyme activity under standard assay conditions.

[2] = Substrate specificity, reducing end assay; type: biochemical; settings: in % activity of chitin powder; 16 h at optimum conditions, 50 mg/ml substrate
Protocol: (§2) Different chitinous substrates were tested to assess the substrate affinity of the novel chitinases relative to untreated chitin powder. […] As expected, the conversion of colloidal chitin is more efficient compared to chitin powder as it provides an overall smaller particle size and thereby larger surface area. Chitosan powder (degree of acetylation: 15%) was also degraded efficiently and high chitosanase activity was observed especially for C1, C3, C4 and C5. Merely basal activity was detected when cellulose was utilized as a substrate for all enzymes.
The preparation of colloidal chitin was similar to the method described by Murthy and Bleakley with some minor differences [Murthy et al., Microbiol., 2012. 10(2): p. 1-5.]. Chitin powder (Carl Roth) was dissolved in concentrated hydrochloric acid (HCl) (5 g in 100 mL) and stirred at 4° C. for 24 h, after which the mixture was centrifuged at 4000×g for 15 min at 4° C. The precipitate was washed to neutral pH with distilled water and stored at 4° C.
as §1

Fusarium oxysporum = assay: Minimum inhibitory concentration (MIC) test on fungal pathogens; type: cell-based; parameters: key: xx = no growth/strong inhibition; x = small inhibition; settings: start concentration 100 μg/ml
[3] = Substrate specificity, reducing end assay; type: biochemical; settings: in % activity of chitin powder; 16 h at optimum conditions, 50 mg/ml substrate; remark: listed apart in the source
Protocol: as §2, §1

Molecule	Km (enzyme-substrate affinity) [1]	Vmax (maximum reaction velocity) [1]	Relative activity, Colloidal chitin [2]	growth inhibition of Fusarium oxysporum in the MIC test (Fusarium oxysporum)	Relative activity, Cellulose [3]	Relative activity, Chitin [3]	Relative activity, Chitosan [3]
B1	15.2 mg/mL	206.2 U/ml	133.4 ± 6.5%	xx	9.4 ± 0.9%	100%	113.4 ± 9.0%
B2	36.0 mg/mL	89.5 U/ml	164.1 ± 2.8%	xx	11.2 ± 1.1%	100%	117.8 ± 1.7%
B3	61.8 mg/mL	175.4 U/ml	191.4 ± 4.7%	xx	10.0 ± 1.1%	100%	71.4 ± 6.7%
B4	22.2 mg/mL	218.6 U/ml	117.7 ± 6.3%	xx	10.4 ± 0.9%	100%	141.3 ± 5.5%
